Where a chain is given by its changes, count along the chain named.
T1: biotinylated GITR (human, UniProt Q9Y5U5 26-161, limits assumed, biotinylated (sites not given))
T1 construct: also called GITR-bio; Biotin-GITR
T1 sequence: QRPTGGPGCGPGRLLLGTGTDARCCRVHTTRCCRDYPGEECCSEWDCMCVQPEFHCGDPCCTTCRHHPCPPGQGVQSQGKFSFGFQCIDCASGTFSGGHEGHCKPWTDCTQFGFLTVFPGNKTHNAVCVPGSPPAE

B1: germline variant antibody 10 (H1916A11 / K1916A11) (antibody, V domains shown)
VH: QVQLVQSGAEVKKPGASVKVSCKASGYTFTEYAMYWVRQAPGQGLEWMGLIRTYSGGVSYNQKFRGRVTMTVDKSISTAYMELSRLRSDDTAVYYCAKSGTVRGFAYWGQGTLVTVSS
VL: DIVMTQSPDSLAVSLGERATINCKSSQSLLNSSNQKNYLSWYQQKPGQPPKLLIYWASTRESGVPDRFSGSGSGTDFTLTISSVQAEDVAVYHCQNDYSYPYTFGQGTKLEIK
notes: IGHG1/IGKC expression vectors; measured from CHO culture supernatant; also called Antibody ID 10
B2: germline variant antibody 9 (H1916A10 / K1916A10) (antibody, V domains shown)
VH: B1 VH with E31G, G57E, V68A
VL: B1 VL with S33G, S40T, L52M, V84L, Y100F
notes: IGHG1/IGKC expression vectors; measured from CHO culture supernatant; also called Antibody ID 9
B3: germline variant antibody 6 (H1916A07 / K1916A07) (antibody, V domains shown)
VH: B1 VH with A24G, Y54F, R65K, V68A, K74T
VL: B1 VL with S33G, L52M, S69T, V84L
notes: IGHG1/IGKC expression vectors; measured from CHO culture supernatant; also called Antibody ID 6
B4: germline variant antibody 38 (H1916D08 / K1916D08) (antibody, V domains shown)
VH: B1 VH with A9T, A24G, E31G, M48I, L50V, R52K, S59T
VL: B1 VL with S33G, S40T, V84L, H93Y
notes: IGHG1/IGKC expression vectors; measured from CHO culture supernatant; also called Antibody ID 38
B5: germline variant antibody 45 (H1916E05 / K1916E05) (antibody, V domains shown)
VH: B1 VH with A24G, M48I, R65Q, K74T, L113F
VL: B1 VL with S33G, Q43H, S69T, H93Y, Y100F
notes: IGHG1/IGKC expression vectors; measured from CHO culture supernatant; also called Antibody ID 45
B6: germline variant antibody 54 (H1916F09 / K1916F09) (antibody, V domains shown)
VH: B1 VH with Y35H, R65Q, V68A, K74T
VL: B1 VL with S40T, S69T, Y100F
notes: IGHG1/IGKC expression vectors; measured from CHO culture supernatant; also called Antibody ID 54
B7: germline variant antibody 58 (H1916G04 / K1916G04) (antibody, V domains shown)
VH: B1 VH with A24G, E31D, L50V, S59T, R65K, V68A
VL: B1 VL with S33G, Q43H
notes: IGHG1/IGKC expression vectors; measured from CHO culture supernatant; also called Antibody ID 58
B8: germline variant antibody 4 (H1916A05 / K1916A05) (antibody, V domains shown)
VH: B1 VH with G44S, Y54F, G57D, R65Q, G66D
VL: B1 VL with Q43H, S69T, H93Y
notes: IGHG1/IGKC expression vectors; measured from CHO culture supernatant; also called Antibody ID 4
B9: germline variant antibody 1 (H1916A01 / K1916A01) (antibody, V domains shown)
VH: B1 VH with A9T, A24G, M48I, L50V, S59T, R65Q, V68A, K74T
VL: B1 VL with S33G, S40T, Q43H, L52M
notes: IGHG1/IGKC expression vectors; measured from CHO culture supernatant; also called Antibody ID 1
B10: germline variant antibody 15 (H1916B05 / K1916B05) (antibody, V domains shown)
VH: B1 VH with A24G, E31D, M48I, L50V, Y54F, G57D, G66E, V68A
VL: B1 VL with S33G, S69T, V84L
notes: IGHG1/IGKC expression vectors; measured from CHO culture supernatant; also called Antibody ID 15
B11: germline variant antibody 55 (H1916F10 / K1916F10) (antibody, V domains shown)
VH: B1 VH with A9T, E31D, M48I, S59T, R65Q, K74T
VL: B1 VL with S33G, Y100F
notes: IGHG1/IGKC expression vectors; measured from CHO culture supernatant; also called Antibody ID 55
B12: germline variant antibody 29 (H1916C11 / K1916C11) (antibody, V domains shown)
VH: B1 VH with A24G, E31D, M48I, L50V, Y54F, S59T, R65K, V68A, K74T
VL: B1 VL with V84L
notes: IGHG1/IGKC expression vectors; measured from CHO culture supernatant; also called Antibody ID 29
B13: germline variant antibody 11 (H1916Al2 / K1916A12) (antibody, V domains shown)
VH: B1 VH with A24G, E31D, Y35H, K74T
VL: B1 VL with Y100F
notes: IGHG1/IGKC expression vectors; measured from CHO culture supernatant; also called Antibody ID 11
B14: germline variant antibody 36 (H1916D06 / K1916D06) (antibody, V domains shown)
VH: B1 VH with A24G, E31D, L45M, M48I, L50V, Y54F, G66D
VL: B1 VL with S40T, Q43H, L52M, A86E, Y100F
notes: IGHG1/IGKC expression vectors; measured from CHO culture supernatant; also called Antibody ID 36
B15: germline variant antibody 31 (H1916D01 / K1916D01) (antibody, V domains shown)
VH: B1 VH with A9T, A24G, Y54F, V58L, S59T, R65K, G66D, T112I, L113P
VL: B1 VL with S40T, S69T, V84L
notes: IGHG1/IGKC expression vectors; measured from CHO culture supernatant; also called Antibody ID 31
B16: germline variant antibody 16 (H1916B06 / K1916B06) (antibody, V domains shown)
VH: B1 VH with A9T, E31G, M48I, Y54F, S59T, G66E
VL: B1 VL with S33G, S40T, Q43H, S69T
notes: IGHG1/IGKC expression vectors; measured from CHO culture supernatant; also called Antibody ID 16
B17: germline variant antibody 2 (H1916A03 / K1916A03) (antibody, V domains shown)
VH: B1 VH with Y35H, L45M, M48I, V68A
VL: B1 VL with S33G, Q43H, H93Y, D97E, Y100F
notes: IGHG1/IGKC expression vectors; measured from CHO culture supernatant; also called Antibody ID 2
B18: germline variant antibody 50 (H1916F03 / K1916F03) (antibody, V domains shown)
VH: B1 VH with A9T, E31D, M48I, Y54F, R65K, G66E
VL: B1 VL with S40T, L52M, V84L, H93Y
notes: IGHG1/IGKC expression vectors; measured from CHO culture supernatant; also called Antibody ID 50
B19: germline variant antibody 46 (H1916E06 / K1916E06) (antibody, V domains shown)
VH: B1 VH with Y54F, G57D, V58L, K74T
VL: B1 VL with S33G, Q43H, S69T, V84L
notes: IGHG1/IGKC expression vectors; measured from CHO culture supernatant; also called Antibody ID 46
B20: germline variant antibody 52 (H1916F05 / K1916F05) (antibody, V domains shown)
VH: B1 VH with A9T, A24G, E31D, G66E
VL: B1 VL with S33G, S40T, V84L, Y100F
notes: IGHG1/IGKC expression vectors; measured from CHO culture supernatant; also called Antibody ID 52
B21: germline variant antibody 33 (H1916D03 / K1916D03) (antibody, V domains shown)
VH: B1 VH with E31G, L45M, M48I, S59T, R65Q, K74T
VL: B1 VL with S33G, Q43H, D97E
notes: IGHG1/IGKC expression vectors; measured from CHO culture supernatant; also called Antibody ID 33
B22: germline variant antibody 34 (H1916D04 / K1916D04) (antibody, V domains shown)
VH: B1 VH with E31D, L45M, M48I, L50V, Y54F, S59T, K74T
VL: B1 VL with P8T, S40T, S69T, V84L
notes: IGHG1/IGKC expression vectors; measured from CHO culture supernatant; also called Antibody ID 34
B23: germline variant antibody 43 (H1916E03 / K1916E03) (antibody, V domains shown)
VH: B1 VH with A24G, L45M, M48I, Y54F, G57D, R65K, V68A
VL: B1 VL with S33G, S40T, L52M, S69T
notes: IGHG1/IGKC expression vectors; measured from CHO culture supernatant; also called Antibody ID 43
B24: germline variant antibody 39 (H1916D09 / K1916D09) (antibody, V domains shown)
VH: B1 VH with A24G, E31G, Y35H, G66E, V68A, K74T, V114I
VL: B1 VL with S40T, S69T, D97E, Y100F
notes: IGHG1/IGKC expression vectors; measured from CHO culture supernatant; also called Antibody ID 39
B25: germline variant antibody 25 (H1916C07 / K1916C07) (antibody, V domains shown)
VH: B1 VH with Y54F, V68A, K74T
VL: B1 VL with S33G, S40T, L52M, S69T, H93Y, Y100F
notes: IGHG1/IGKC expression vectors; measured from CHO culture supernatant; also called Antibody ID 25
B26: germline variant antibody 59 (H1916G05 / K1916G05) (antibody, V domains shown)
VH: B1 VH with G66D
VL: B1 VL with Q43H
notes: IGHG1/IGKC expression vectors; measured from CHO culture supernatant; also called Antibody ID 59
B27: germline variant antibody 47 (H1916E08 / K1916E08) (antibody, V domains shown)
VH: B1 VH with E31D, L45M, L50V, S59T, G66D, Y107D
VL: B1 VL with S33G, S69T, Y100F
notes: IGHG1/IGKC expression vectors; measured from CHO culture supernatant; also called Antibody ID 47

Each binder was assayed against T1, biotinylated GITR (assay: BLI (Octet), biotin-GITR on streptavidin tips, antibody supernatant).
Experimental: Several hundred germlined antibodies were selected based on binding kinetics as determined by Octet measurements (Octet RED 96 system; ForteBio™ Inc., Menlo Park, Calif.). The experimental procedure was configured according to the instruction manual of the instrument. Biotin-GITR was bound to Streptavidin biosensor (SA) and PBS (pH 7.4) was used as a blank control. Briefly, the interaction analyses were conducted at 30° C. in running buffer (PBS, 0.05% Tween, pH7.4). Sensor tips were pre-wet for 10 minutes in running buffer immediately prior to use, and the micro plates used in the Octet were filled with 200 μl of sample or buffer per well and agitated at 800 rpm. For the experiments, commercially available precoated SA tips were used. Biotinylated GITR was loaded onto the ForteBio SA fibers in PBS pH7.4 for 10 minutes and washed for 4 minutes. For the association phase, the ligand-coated SA tips were immersed for 5 minutes in cell culture supernatant that was diluted 1:10 in running buffer prior to the measurement. Dissociation of the antibody-antigen complex was measured in wells containing the Octet buffer alone for 5 minutes. After each run, the tips were regenerated with Glycine (10 mM, pH 2.0). Affinity, Kₒₙ and Koff were determined with Octet evaluation software v6.3 using a 1:1 binding model with local full fitting.

Kd	koff	kon	Binder
0.911 nM	0.00056 s⁻¹	615000 M⁻¹ s⁻¹	B1
2.68 nM	0.000784 s⁻¹	293000 M⁻¹ s⁻¹	B2
2.7 nM	0.000579 s⁻¹	214000 M⁻¹ s⁻¹	B3
0.0875 nM	0.00075 s⁻¹	8.57e+06 M⁻¹ s⁻¹	B4
0.562 nM	0.000255 s⁻¹	455000 M⁻¹ s⁻¹	B5
1.26 nM	0.000688 s⁻¹	548000 M⁻¹ s⁻¹	B6
1.58 nM	0.000415 s⁻¹	263000 M⁻¹ s⁻¹	B7
1.43 nM	0.000501 s⁻¹	351000 M⁻¹ s⁻¹	B8
0.744 nM	0.000348 s⁻¹	468000 M⁻¹ s⁻¹	B9
2.22 nM	0.000616 s⁻¹	278000 M⁻¹ s⁻¹	B10
1.27 nM	0.00055 s⁻¹	435000 M⁻¹ s⁻¹	B11
1.06 nM	0.000313 s⁻¹	295000 M⁻¹ s⁻¹	B12
2.1 nM	0.000847 s⁻¹	403000 M⁻¹ s⁻¹	B13
0.44 nM	0.00028 s⁻¹	638000 M⁻¹ s⁻¹	B14
0.418 nM	0.000211 s⁻¹	505000 M⁻¹ s⁻¹	B15
1.47 nM	0.000523 s⁻¹	356000 M⁻¹ s⁻¹	B16
4.23 nM	0.00234 s⁻¹	553000 M⁻¹ s⁻¹	B17
1.01 nM	0.000254 s⁻¹	252000 M⁻¹ s⁻¹	B18
0.619 nM	0.000248 s⁻¹	400000 M⁻¹ s⁻¹	B19
1.07 nM	0.000426 s⁻¹	397000 M⁻¹ s⁻¹	B20
0.0901 nM	0.00101 s⁻¹	1.12e+07 M⁻¹ s⁻¹	B21
0.458 nM	0.000255 s⁻¹	557000 M⁻¹ s⁻¹	B22
1.28 nM	0.000477 s⁻¹	373000 M⁻¹ s⁻¹	B23
0.255 nM	0.000997 s⁻¹	3.91e+06 M⁻¹ s⁻¹	B24
1.69 nM	0.000632 s⁻¹	374000 M⁻¹ s⁻¹	B25
1.04 nM	0.000312 s⁻¹	299000 M⁻¹ s⁻¹	B26
2.06 nM	0.000804 s⁻¹	391000 M⁻¹ s⁻¹	B27

Source: patent US20210070872A1 (AGENUS, published 2021)
